Results as given in the supplement of paper PMC9732359.
± gives the uncertainty stated by the source.

Assay: protein stability index of a GFP-peptide fusion (yeast GPS) (PSI 1-4); higher = more stable; sorted into four equal gates, so the index is relative within each strain
Conditions: pdr5∆
Method in brief: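 The protein stability index combines read frequencies across sorting gates, each weighted by its gate number and then summed. To obtain those frequencies, a pooled yeast library of GFP fusions to tiled 17-residue yeast protein peptides, on a plasmid also expressing Cherry, was grown to mid-log phase in leucine-free medium. The cells were sorted into four equal gates by GFP/Cherry ratio before plasmid amplification by PCR and Illumina sequencing.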

Sequence	protein stability index
PELFESLGIAQPKGVIL [RPT6]	2.82 ± 0.069
PEQGEEPMKQLNATKIS [YAR002W/NUP60]	2.2 ± 0.09

Same assay, conditions: san1∆

Sequence	protein stability index
NLGYCNDKLIVDNDNWV [RPN1]	2.32 ± 0.2
NLHALSMSLQSKNLGEI [SWI1]	2.04 ± 0.17
NLIIFLYKFNGWSLVGR [YML103C/NUP188]	2.52 ± 0.2
NLKEYNKFMSIFLKRKD [SRB8]	2.83 ± 0.078
NLLPKKSAKATKASQEL [HTA1]	3.17 ± 0.069
NLPKDKSGIPEFTPADP [SSN2]	3.03 ± 0.076
NLRTQVTQQKRSLDENR [SMC1]	2.91 ± 0.092
NLSQENDNEGKHISASI [YAR002W/NUP60]	3.13 ± 0.054
NLTIHFGGEKGKRIREN [FAS1]	3.05 ± 0.092
NLWKNIFLSKENSAVAA [COR1]	2.01 ± 0.13
NMEKEKDRIIDERTKEF [YIL149C/MLP2]	3.1 ± 0.074
NMLICAPTGSGKTNIAL [BRR2]	2.12 ± 0.091
NMYTSTQKTELEIDNKD [SIR4]	3.04 ± 0.068
NNAHSSDLGTVVFDSNE [YMR153W/NUP53]	2.24 ± 0.1
NNDVFTIGPYRARKDRM [SSN3]	3.43 ± 0.14
NNFIVERVQSDENKDDE [SRP68]	2.77 ± 0.23
NNGLPMKNKAETTTEED [ITC1]	2.94 ± 0.092
NNGSSDKSLDSSNASFN [MED1]	3.08 ± 0.22
NNIFKEFTSKIGFTIKE [SMC1]	2.76 ± 0.1
NNIIRIQQLISQFLKRV [SNF11]	2.13 ± 0.065
NNKITQLIAKNVANVSG [SIR3]	2.07 ± 0.094
NNNEDNENNNNSSEKNN [MED2]	3.2 ± 0.039
NNNGNPGTTSTGNNNNI [GAL11]	3.18 ± 0.061
NNNNTIDESMPDTAIDS [GRR1]	2.81 ± 0.061
NNNQKIDDNYIVVVIEI [SRB8]	3.29 ± 0.083
NNPANNTNNNNSTGHSS [SWI1]	2.59 ± 0.034

Sequence	protein stability index
NNSTGIANDNVITPHFI [SWI1]	2.86 ± 0.031
NNTLSRYADAGNIDTKN [RRP43]	3.28 ± 0.041
NNTNTGASGVDDFQNFF [SWI1]	2.87 ± 0.069
NNVTSNPSEFTPNMVNS [SSN2]	2.66 ± 0.09
NNVYFAAGALFVSSGFD [RPN14]	1.92 ± 0.29
NPASATDNMSGRGLWNP [YJL039C/NUP192]	2.8 ± 0.076
NPDDDYGFKQEIFDVTS [FAS1]	3.17 ± 0.1
NPHDGVNSIALFVGTDR [RPN14]	2.33 ± 0.076
NPIDPFNIIREFRSAAG [YDL116W/NUP84]	3.16 ± 0.043
NPMVPSSVNEDTFLPPP [PRP8]	3.01 ± 0.04
NPSQGVSNSGAQDEEIH [UBP6]	2.04 ± 0.12
NPTEFDWPTYVDQNPLT [SRB8]	2.69 ± 0.054
NPVALEQKLVDLLKFEN [BRR2]	2.3 ± 0.12
NQKLALVIKSGKYTLGY [RPL30]	2.29 ± 0.13
NQLSQTNKLLFKRVSQT [NUT1]	1.37 ± 0.083
NQMKVAPIPKQLLQRIP [GAL11]	2.52 ± 0.054
NQTRKAHRNGIKKPKTY [RPL29]	2.92 ± 0.058
NQYKLVFYQVTPEDADE [RPL22B]	2.34 ± 0.059
NRHNLLNDVVSFLFSAI [SWI1]	2.4 ± 0.067
NRLSRIHLYMLTFHTLK [YLR018C/POM34]	1.54 ± 0.12
NSAARNIQHLLYGKRFF [PRE7]	2.12 ± 0.1
NSANGSSLNGTNAKIPQ [SSN3]	2.53 ± 0.076
NSAVNNAISNTQDDFTT [SRP54]	3.04 ± 0.064
NSDHAKFTIEPGVLPVG [SNF2]	2.32 ± 0.098
NSKPVELKPVSLDNKTL [YJL041W/NSP1]	2.69 ± 0.076
NSLAVRGKDCTVVISQK [SCL1]	2.94 ± 0.051

Sequence	protein stability index
NSNKQAVAILADDEKSD [BRR2]	3.03 ± 0.086
NSSEKNNNNNNNNNNNN [MED2]	2.95 ± 0.059
NSSEQESDYEPNNETSV [SIR3]	3.02 ± 0.063
NSTASSSNISPEQVYSL [ARP7]	2.63 ± 0.051
NTENVESVPTPANAEPQ [ITC1]	2.96 ± 0.1
NTEQGDSDELGGESMEG [SNM1]	3.4 ± 0.093
NTFTWNHSLQHQNESSA [RPN4]	3.18 ± 0.058
NTGGESVVKKEDNKYAI [RGR1]	3.33 ± 0.094
NTGIVSSTTGMSYVVRI [RPT3]	3.31 ± 0.11
NTLRMKHGTYDKLDDDG [RPB2]	2.83 ± 0.063
NTMSAWVNMLLISSSGP [FAS2]	1.37 ± 0.1
NTNNNNNPANNTNNNNS [SWI1]	3.344 ± 0.026
NTNNNNSTGHSSNTNNN [SWI1]	2.41 ± 0.058
NTSLISLFTYFREAIVA [PRP8]	1.34 ± 0.1
NTSSKRQKKKPTSAQKS [IRR1]	2.5 ± 0.061
NTTTRVIPQVEVGNRKH [SNF5]	2.35 ± 0.17
NVANVSGSTEKAFKICE [SIR3]	3.18 ± 0.043
NVAVDIINFGEIEQNTE [RPN10]	3.27 ± 0.059
NVDNQTSDLVKSLGLKL [RPS17A]	3.35 ± 0.066
NVFARLSRLLSLWEVFQ [RPC82]	2.79 ± 0.14
NVFGQDNEDSDNLFGET [SWI3]	3.23 ± 0.12
NVGELIEKNVMESIGSD [RRP4]	2.62 ± 0.098
NVIDTQRKNGVTNSPLF [ECM29]	3.09 ± 0.21
NVIRSLEQEYRLILLLN [RMP1]	1.29 ± 0.071
NVKFLRIFISNVSENQP [SNF12]	2.02 ± 0.075
NVKNDVSFNDSQSMVTN [YIL149C/MLP2]	3.07 ± 0.067

Sequence	protein stability index
NVKYRAVVFKPFKGEVV [RPB7]	2.43 ± 0.075
NVLCVNIKSNDFSIRKT [ECM29]	2.58 ± 0.1
NVLNQINQIFSPEEQRS [GAL11]	2.91 ± 0.039
NVMTPREQYETQVALNE [UBP6]	2.83 ± 0.13
NVNNRFDNFLTEEELQA [BRN1]	3 ± 0.056
NVQTQYREAPVIYRGPE [RET1]	3.36 ± 0.042
NVSLIKIEGVATPQDAQ [RPL33A]	2.38 ± 0.11
NVTGGKAANFIQNQSPQ [SWI1]	2.87 ± 0.051
NVTKSSVGVIINKMVGN [RPL21A]	2.46 ± 0.19
NVTQNEQQWITRAQYLA [SRP68]	1.19 ± 0.13
NWRSFNAKIIDAEVAQF [SRP68]	2.01 ± 0.073
NYELEKIADNISKDENE [YDL116W/NUP84]	2.98 ± 0.048
NYTGWKAISVGANTSAA [PRE9]	1.24 ± 0.2
PAAESKIFTPNLLQISA [SNF5]	2.09 ± 0.14
PAEHPFISAARYKPKSH [RPC37]	2.66 ± 0.064
PANNHQLGLQTVIRGNS [SMX2]	2.91 ± 0.074
PASDDILDNINHNGSAL [ITC1]	3.06 ± 0.095
PASKQGYLITPPKHTEL [SSN2]	2.49 ± 0.17
PDENHDNTSHDEQDDDN [BRN1]	3.05 ± 0.12
PDENKTRVRLPSGAKKV [RPL2A]	3.1 ± 0.037
PDGLGEVGMKVQSGQIY [RET1]	2.91 ± 0.094
PDIVGHEFTLSFTYELK [BRR2]	2.15 ± 0.05
PDLPALEASYSKSYTPR [SMC4]	2.75 ± 0.1
PEENATEGPSDKKLNLN [SNF12]	3.27 ± 0.099
PELFESLGIAQPKGVIL [RPT6]	2.46 ± 0.092
